Laboratory results reported in paper PMC4821807, “Estrogen receptor alpha somatic mutations Y537S and D538G confer breast cancer endocrine resistance by stabilizing the activating function-2 binding conformation” (eLife, 2016).
Like-named read-outs stand apart in the source and are kept apart here.

Assays:
[1] = tested on: Y537S mutant ERα; parameters: method as in Toy et al., 2013; conditions: breast cancer cells, ref Toy et al., 2013; cited from earlier work
[2] = tested on: D538G mutant ERα; parameters: method as in Toy et al., 2013; conditions: breast cancer cells, ref Toy et al., 2013; cited from earlier work
[3] = target: D538G estrogen receptor α ligand-binding domain (ERα amino acids 304–554), 6×His fusion, biotin-labelled at C417 (human) (UniProt P03372); experiment: FRET or BRET; time-resolved FRET, SRC titration, ER pre-saturated with 1 µM E2: SRC3-fluorescein titrated from 3.2×10^-7 to 3.2×10^-12 M into 1 nM biotinylated ERα LBD on 0.25 nM streptavidin-terbium
[4] = target: Y537S estrogen receptor α ligand-binding domain (ERα amino acids 304–554), 6×His fusion, biotin-labelled at C417 (human) (UniProt P03372); experiment: as above
[5] = target: wild type estrogen receptor α ligand-binding domain (ERα amino acids 304–554), 6×His fusion, biotin-labelled at C417 (human) (UniProt P03372); experiment: as above
[6] = target: D538G estrogen receptor α ligand-binding domain (ERα amino acids 304–554), 6×His fusion, biotin-labelled at C417 (human) (UniProt P03372); experiment: FRET or BRET; time-resolved FRET, SRC titration, no ligand (apo): SRC3-fluorescein titrated from 3.2×10^-7 to 3.2×10^-12 M into 1 nM biotinylated ERα LBD on 0.25 nM streptavidin-terbium; 96-well plates
[7] = target: Y537S estrogen receptor α ligand-binding domain (ERα amino acids 304–554), 6×His fusion, biotin-labelled at C417 (human) (UniProt P03372); experiment: as above
[8] = target: D538G ERα LBD (Homo sapiens, UniProt P03372, D538G, form not given); type: binding; conditions: for Kd: read-out: SRC-3 NRD Kd
Procedure: (§1) While bound to the Ni-NTA-agarose resin (Qiagen Inc., Santa Clarita, CA), the ERs were labeled with MAL-dPEG4-biotin (Quanta BioDesign, Powell, OH), site-specifically at C417. The SRC3-NRD construct has 4 cysteines and was labeled non-specifically, also while on the resin, with 5-iodoacetamido fluorescein (Molecular Probes, Invitrogen, Eugene, OR).
(§2) Diffusion-enhanced FRET was determined by a parallel incubation without biotinylated ER-LBD and subtracted as a background signal. […] The data, representing 2–3 replicate experiments, each with duplicate points, were analyzed using GraphPad Prism 4 and are expressed as the EC50 in nM.

[9] = target: WT ERα LBD (Homo sapiens, UniProt P03372); type: binding; conditions: for SRC-3 NRD Kd: WT apo (absence of E2)
Procedure: as §1, §2

[10] = target: Y537S ERα LBD (Homo sapiens, UniProt P03372, Y537S, form not given); type: binding; conditions: for Kd: read-out: SRC-3 NRD Kd
Procedure: as §1, §2

[11] = target: the molecule itself; experiment: crystal structure; D538G ERα LBD with 1 mM E2 and a 2.5-fold molar excess of GRIP peptide; hanging drop, 25% PEG 3,350, 200 mM MgCl2, 100 mM Tris pH 8.5, 1 mM phenylalanine

C[C@]12CC[C@@H]3c4ccc(O)cc4C[C@@H](CCCCCCCCC[S+]([O-])CCCC(F)(F)C(F)(F)F)[C@H]3[C@@H]1CC[C@@H]2O (stereo partly shown) [fulvestrant]
ablation of transcriptional activity of the mutant [1]: completely ablate | ablation of transcriptional activity of the mutant [2]: completely ablate

steroid receptor coactivator 3 nuclear receptor domain (amino acids 627–829), fluorescein-labelled (from UniProt Q9Y6Q9 627-829) (domain or fragment)
Kd [3]: 3.65 nM | Kd [4]: 0.59 nM | Kd [5]: 2.67 nM | Kd [6]: 151 nM | Kd [7]: 13.6 nM

CC/C(=C(\c1ccc(O)cc1)c1ccc(OCCN(C)C)cc1)c1ccccc1 [TOT, 4-hydroxytamoxifen]
ablation of transcriptional activity of the mutant [1]: could not | ablation of transcriptional activity of the mutant [2]: could not

B1: SRC3 NRD: steroid receptor coactivator 3 nuclear receptor domain, human, amino acids 627–829, fluorescein labeled (protein)
chain: CSSDDRGHSSLTNSPLDSSCKESSVSVTSPSGVSSSTSGGVSSTSNMHGSLLQEKHRILHKLLQNGNSPAEVAKITAEATGKDTSSITSCGDGNVVKQEQLSPKKKENNALLRYLLDRDDPSDALSKELQPQVEGVDNKMSQCTSSTIPSSSQEKDPKIKTETSEEGSGDLDNLDAILGDLTSSDFYNNSISSNGSHLGTKQQ
modifications: 5-iodoacetamido fluorescein on cysteines, non-specific (4 cysteines; an average of 1.8–2 fluorescein molecules attached); left off: His tag (inferred from the labelling on the resin), end not stated,
Kd ([8]; D538G apo (absence of E2)): 151 ± 20 nM | Kd ([8]; D538G pre-saturated with E2 (1 µM ligand)): 3.65 ± 0.4 nM | SRC3 binding curve plateau, of the maximum ([8]; D538G, absence of E2): approximately 60% | SRC-3 NRD Kd [9]: no binding was detected | SRC-3 NRD Kd ([9]; listed as SRC-3 NRD): No Recruitment | Kd ([9]; WT saturated with E2 (1 µM ligand), read-out: SRC-3 NRD Kd): 2.67 ± 0.5 nM | Kd ([10]; Y537S apo (absence of E2)): 13.6 ± 2 nM | Kd ([10]; Y537S pre-saturated with E2 (1 µM ligand)): 0.59 ± 0.1 nM | SRC3 binding curve plateau, of the maximum ([10]; Y537S, absence of E2): approximately 60%

B2: ERα LBD D538G mutant (crystallisation construct, 6×His-TEV tag removed) (domain or fragment, human)
chain: KRSKKNSLALSLTADQMVSALLDAEPPILYSEYDPTRPFSEASMMGLLTNLADRELVHMINWAKRVPGFVDLTLHDQVHLLECAWLEILMIGLVWRSMEHPGKLLFAPNLLLDRNQGKCVEGMVEIFDMLLATSSRFRMMNLQGEEFVCLKSIILLNSGVYTFLSSTLKSLEEKDHIHRVLDKITDTLIHLMAKAGLTLQQQHQRLAQLLLILSHIRHMSNKGMEHLYSMKCKNVVPLYGLLLEMLDAHRLHAPTS
notes: Unresolved residues were not included in the deposited structures; also called apo D538G; D538G-E2; source: E. coli BL21 (DE3), purified (Ni-NTA, TEV cleavage, Resource Q ion exchange)
binding result [11]: binds
